The values below come from patent US20160075790A1 (Bristol-Myers Squibb, published 2016).

Positions count from the first letter of the chain named. Several values for one entry are separate records, joined by “and”; a condition that tells them apart may be missing. Equal values may be shown once. Where only a bound is given, the exact number is not on record here.

B1: BMS2h-437-4 (other)
VL: DIQMTQSPSSLSASVGDRVTITCRASTPIGTMLDWYQQKPGKAPKLLIGHSSWLQSGVPSRFSGCGSGTDFTLTISSLQPEDFATYYCGQHVRPPATFGQGTKVEIKR
B2: BMS2h-492-3 (other)
VL: DIQMTQSPSSLSATVGDRVTITCRASQAIETNLEWYQQKPGKAPKLLIYDASMLQSGVPSRFSGSGSGTDFTLTISSLQPEDFATYYCQQYDAYPPTFGQGTKVEIKR
B3: BMS2h-492-4 (other)
VL: B2 VL with T14S, T31H, S65R
B4: BMS2h-494-4 (other)
VL: EIQMTQSPSSLSASVGDRVTMTCRASQSIDKDLEWYQQKPGKAPRLLIYSSSWLQRGVPSRFSGSGSGTDFTLTISSLRPEDFATYYCQQYFQYPPTLGQGTKVEIKR
B5: BMS2h-494-6 (other)
VL: B4 VL with E1D, S9P, M21I, R79Q, Y87H, L98F
B6: BMS2h-719-19 (other)
VH: EVQLLESGGGWVQPGGSLRLSCAASGFTFKRYEMMWVRQAPGKGLEWVSSISSDGSFTYYADSVKGRFTISRDNSKNTLYLQMNSLRAEDTAVYYCADPFTEFDYWGQGTLVTVSS
B7: BMS2h-503 (other)
VL: DIQMTQSPSSLSASVGDRVTITCRASHHIQRYLSWYQQKPGKAPKLLILWGSQLQSGVPSRFSGSGSGTDFTLTISSLQPEDFATYYCGQWWAPPPTFGQGTKVEIKR
B8: BMS2h-503-1 (other)
VL: B7 VL with P96Q
B9: BMS2h-503-2 (other)
VL: B7 VL with H28D, P96Q
B10: BMS2h-116-1320 (other)
VL: DIQMTQSPSSLSAYVGDRVTITCRASQPIGPDLLWYQQKPGKAPKLLIYQTSILRSGVPSRFSGSGSETDFTLTISNLQPEDFAKYYCQQYWAFPVTFGQGTKVVIKR
B11: BMS2h-116-1319 (other)
VL: B10 VL with Y14S, L54M, K85T, A93T, V105E
B12: BMS2h-572-614 (other)
VH: EVQLLESGGGLVQPGGSLRLSCAASGFTFNWQLMGWVRQAPGKGLEWVSGIEGPGDVTYYADSVKGRFTISRDNSKNTLYLQMNSLRAEDTAVYYCVKVGKDAKSDYRGQGTLVTVSS
B13: BMS2h-572-622 (other)
VH: B12 VH with A103S, K104T
B14: BMS2h-572-630 (other)
VH: B12 VH with N30K
B15: BMS2h-572-610 (other)
VH: B12 VH with A103S
B16: BMS2h-572-631 (other)
VH: B12 VH with N30K, A103S, K104R
B17: BMS2h-572-608 (other)
VH: B12 VH with Q32E, V37A, D102E, A103S, K104N
B18: BMS2h-572-623 (other)
VH: B12 VH with D102E, A103S, K104S
B19: BMS2h-572-619 (other)
VH: B12 VH with A103S, K104R
B20: BMS2h-572-616 (other)
VH: B12 VH with D102E, A103S
B21: BMS2h-572-617 (other)
VH: B12 VH with K101R, A103S
B22: BMS2h-572-604 (other)
VH: B12 VH with N30K, D102E, A103S, K104N
B23: 2h503-1 Fc (Fc fusion, not shown: a dimerising Fc or GST)
chain: B7 VL with P96Q
B24: 2h116-1320-Fc (Fc fusion, not shown: a dimerising Fc or GST)
chain: B10 VL
B25: 2h572-6 Fc (Fc fusion, not shown: a dimerising Fc or GST)
chain: B12 VH with D102E, A103S, K104N
B26: 2h572-633 Fc (Fc fusion, not shown: a dimerising Fc or GST)
chain: B12 VH with Q32E, V37A
B27: 2h572-634 Fc (Fc fusion, not shown: a dimerising Fc or GST)
chain: B12 VH with Q32E, V37A, A103S, K104R

The target of one test is T1, human isoleucine zipper-CD40L (IZ-hCD40L) (human, UniProt P29965 113-261).
T1 sequence: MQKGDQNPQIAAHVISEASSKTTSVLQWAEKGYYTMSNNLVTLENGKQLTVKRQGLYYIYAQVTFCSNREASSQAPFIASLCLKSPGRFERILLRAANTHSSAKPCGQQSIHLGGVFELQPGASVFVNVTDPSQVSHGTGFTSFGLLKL
Nature of the test: cell-based or functional assay.
For B1, the “hIZCD40L-driven Human B Cell Proliferation EC50” value is 203 nM.
The same measure, in the same setting: the same measure for B2: 1100 nM; for B3: 1700 nM; for B4: 590 nM.
As to B5, the “hIZCD40L-driven Human B Cell Proliferation EC50” value turned out to be 2000 nM.
In the case of B6, the “hIZCD40L-driven Human B Cell Proliferation EC50” value came out at 138 nM.
Take B7: the “hIZCD40L-driven Human B Cell Proliferation EC50” value turned out to be 4200 nM.
Take B8: the “hIZCD40L-driven Human B Cell Proliferation EC50” value was determined as 24 nM.
The same measure, in the same setting: next, B9: 44 nM.
Same read-out and setting: the same measure for B10: 20 nM.
Regarding B11, the “hIZCD40L-driven Human B Cell Proliferation EC50” value amounted to 180 nM.
As for B12, the “hIZCD40L-driven Human B Cell Proliferation EC50” value was determined as 93 nM.
For B13, the “hIZCD40L-driven Human B Cell Proliferation EC50” value was 301 nM and 293 nM.
Turning to B14, the “hIZCD40L-driven Human B Cell Proliferation EC50” value amounted to 103 nM.
With B15, the “hIZCD40L-driven Human B Cell Proliferation EC50” value turned out to be 109 nM.
For the molecule B16, the “hIZCD40L-driven Human B Cell Proliferation EC50” value worked out at 108 nM.
Still for that read-out and setting: the same measure for B17: 96 nM; for B18: 181 nM and 261 nM.
For B19, the “hIZCD40L-driven Human B Cell Proliferation EC50” value was 90 nM.
On the same count and under the same terms, next, B20: 204 nM and 340 nM; B21: 157 nM and 189 nM; B22: 254 nM and 354 nM.

A further test concerns the target T2, human CD40L, membrane-bound on cells (human, UniProt P29965 1-261).
T2 sequence: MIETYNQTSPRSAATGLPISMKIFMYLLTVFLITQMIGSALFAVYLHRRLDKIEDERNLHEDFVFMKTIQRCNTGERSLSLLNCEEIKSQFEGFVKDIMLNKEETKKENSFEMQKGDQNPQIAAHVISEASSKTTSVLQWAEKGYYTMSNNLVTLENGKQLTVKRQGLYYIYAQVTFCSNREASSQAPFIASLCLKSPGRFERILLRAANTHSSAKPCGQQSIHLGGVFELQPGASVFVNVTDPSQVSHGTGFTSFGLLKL
Nature of the test: cell-based or functional assay.
In the case of B1, the “CHO-hCD40L-driven DC Activation IL-12 EC50” value was determined as 1330 nM and the “CHO-hCD40L-driven Human B Cell Proliferation EC50” value was > 7000 nM.
With B2, the “CHO-hCD40L-driven Human B Cell Proliferation EC50” value was > 7000 nM.
Still for that read-out and setting: the same measure for B3: > 7000 nM.
Same read-out and setting: the same measure for B4: > 7000 nM.
Consider B5, for which the “CHO-hCD40L-driven Human B Cell Proliferation EC50” value is > 7000 nM.
As to B6, the “CHO-hCD40L-driven DC Activation IL-12 EC50” value stood at 184 nM.
As to B7, the “CHO-hCD40L-driven Human B Cell Proliferation EC50” value was > 7000 nM.
B8: the “CHO-hCD40L-driven DC Activation IL-12 EC50” value is 756 nM and the “CHO-hCD40L-driven Human B Cell Proliferation EC50” value amounted to 2300 nM.
The corresponding values for B9 are 1560 nM and 3000 nM.
On to B10, for which the “CHO-hCD40L-driven DC Activation IL-12 EC50” value came out at 32 nM, the “CHO-hCD40L-driven Human B Cell Proliferation EC50” value amounted to 138 nM and the “T-B cell MLR EC50” value is 191 nM.
Turning to B11, the “CHO-hCD40L-driven Human B Cell Proliferation EC50” value was > 7000 nM.
Take B12: the “CHO-hCD40L-driven DC Activation IL-12 EC50” value was determined as 135 nM and the “T-B cell MLR EC50” value is > 7000 nM.
As to B13, the “CHO-hCD40L-driven DC Activation IL-12 EC50” value is 281 nM and the “T-B cell MLR EC50” value was > 7000 nM.
Regarding B14, the “CHO-hCD40L-driven DC Activation IL-12 EC50” value amounted to 246 nM.
In the case of B15, the “CHO-hCD40L-driven DC Activation IL-12 EC50” value was found to be 207 nM and the “T-B cell MLR EC50” value was > 7000 nM.
For B16, the “CHO-hCD40L-driven DC Activation IL-12 EC50” value stood at 230 nM.
For the molecule B17, the “CHO-hCD40L-driven DC Activation IL-12 EC50” value worked out at 152 nM and the “T-B cell MLR EC50” value was > 7000 nM.
The corresponding values for B18 are 280 nM and > 7000 nM.
For B19 the same measures were 188 nM and > 7000 nM.
On to B20, for which the “CHO-hCD40L-driven DC Activation IL-12 EC50” value is 608 nM and the “T-B cell MLR EC50” value is > 7000 nM.
The corresponding values for B21 are 338 nM and > 7000 nM.
As to B22, the “CHO-hCD40L-driven DC Activation IL-12 EC50” value worked out at 387 nM and the “CHO-hCD40L-driven Human B Cell Proliferation EC50” value is > 700 nM.

A further test has as its target human isoleucine zipper-CD40L (IZ-hCD40L) (human) (UniProt P29965). As to the kind of experiment: cell-based or functional assay.
As to B23, the hIZCD40L-driven Human B Cell Proliferation EC50 stood at 4 nM.
Consider B24, for which the hIZCD40L-driven Human B Cell Proliferation EC50 is 13 nM.
B25 had a hIZCD40L-driven Human B Cell Proliferation EC50 of 0.6 nM.
Molecule B26 displayed a hIZCD40L-driven Human B Cell Proliferation EC50 of 3.5 nM.
B27 had a hIZCD40L-driven Human B Cell Proliferation EC50 of 3 nM.

For a further test, the target named is T2, human CD40L, membrane-bound on cells. As to the kind of experiment: cell-based or functional assay. The source holds these as a separate data set.
Turning to B23, the CHO-hCD40L-driven DC Activation IL-12 EC50 is 2.8 nM, the CHO-hCD40L-driven Human B Cell Proliferation EC50 was determined as 60 nM and the T-B cell MLR EC50 is 45 nM.
For B24 the same measures were 14 nM, > 130 nM and 244 nM.
The corresponding values for B25 are 0.22 nM, 3 nM and 1.9 nM.
Consider B26, for which the CHO-hCD40L-driven DC Activation IL-12 EC50 is 0.34 nM, the CHO-hCD40L-driven Human B Cell Proliferation EC50 was 3 nM, the T-B cell MLR EC50 was determined as 0.15 nM and the T-B cell MLR IL-6 EC50 was 0.11 nM.
For B27 the same measures were 0.42 nM, 3.5 nM, 0.23 nM and 0.19 nM.
